For data set [1], the target named is T1, WSUCF1 β-xylosidase (Geobacillus zalihae, UniProt A0A7H1RXW2).
T1 construct: gene IC807_05610; full-length ORF of 1509 bp (about 502 residues); N-His SUMO fusion expressed in E. coli, tag cleaved with SUMO protease; 58 kDa, apparent tetramer of 230 kDa
T1 sequence (A0A7H1RXW2 2-503): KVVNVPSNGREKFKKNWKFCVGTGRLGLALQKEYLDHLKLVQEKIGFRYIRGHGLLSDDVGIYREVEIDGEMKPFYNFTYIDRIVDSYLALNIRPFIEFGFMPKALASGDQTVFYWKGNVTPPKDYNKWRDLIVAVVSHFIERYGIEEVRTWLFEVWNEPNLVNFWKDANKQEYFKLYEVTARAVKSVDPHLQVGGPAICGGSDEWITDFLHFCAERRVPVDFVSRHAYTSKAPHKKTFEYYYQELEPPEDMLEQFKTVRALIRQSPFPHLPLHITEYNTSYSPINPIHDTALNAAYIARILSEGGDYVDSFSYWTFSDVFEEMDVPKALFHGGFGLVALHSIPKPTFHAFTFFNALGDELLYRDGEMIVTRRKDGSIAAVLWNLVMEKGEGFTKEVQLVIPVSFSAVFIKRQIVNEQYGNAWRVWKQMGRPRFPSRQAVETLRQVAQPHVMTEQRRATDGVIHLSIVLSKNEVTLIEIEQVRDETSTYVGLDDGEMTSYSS
The data set is described as follows: residual pNPX hydrolysis with added xylose. Particulars: pNPX 2.5 mg/ml stock as substrate, phosphate buffer pH 6.5, 70°C, 10 min; end-product inhibition. Format: biochemical.

Data set [2] concerns the target WSUCF1 β-xylosidase (GH39 β-xylosidase from Geobacillus sp. strain WSUCF1) (Geobacillus sp. strain WSUCF1). Briefly: SDS-PAGE without heat treatment, with zymogram; purified enzyme mixed with 2X SDS sample buffer, loaded on an 8-16% gradient SDS-PAGE gel without heating (230 kDa, active) or after 95°C for 2 min (58 kDa, inactive); tetramer inferred from the 4-fold increase in apparent mass.

Substrate in data set [3]: O=[N+]([O-])c1ccc(O[C@@H]2OC[C@@H](O)[C@H](O)[C@H]2O)cc1
The data set is described as follows: purified protein. The data set is classed as biochemical, Geobacillus zalihae. Particulars: 50 mM phosphate buffer pH 6.5, 70°C, 0–15 mM substrate, Table 2 prints 2.3.

Turning to `OC1OC[C@@H](O)[C@H](O)[C@H]1O` (stereo partly drawn) [xylose], the “% activity retained at 300 mM” value in data set [1] turned out to be 50%.
Broadly, the stoichiometry N is the number of molecules, sites or subunits per partner or assembly. As for “WSUCF1 β-xylosidase (GH39 β-xylosidase from Geobacillus sp. strain WSUCF1) (enzyme)”, the stoichiometry N in data set [2] came out at 4.

B1: WSUCF1 β-xylosidase (Geobacillus zalihae) (protein)
chain: KVVNVPSNGREKFKKNWKFCVGTGRLGLALQKEYLDHLKLVQEKIGFRYIRGHGLLSDDVGIYREVEIDGEMKPFYNFTYIDRIVDSYLALNIRPFIEFGFMPKALASGDQTVFYWKGNVTPPKDYNKWRDLIVAVVSHFIERYGIEEVRTWLFEVWNEPNLVNFWKDANKQEYFKLYEVTARAVKSVDPHLQVGGPAICGGSDEWITDFLHFCAERRVPVDFVSRHAYTSKAPHKKTFEYYYQELEPPEDMLEQFKTVRALIRQSPFPHLPLHITEYNTSYSPINPIHDTALNAAYIARILSEGGDYVDSFSYWTFSDVFEEMDVPKALFHGGFGLVALHSIPKPTFHAFTFFNALGDELLYRDGEMIVTRRKDGSIAAVLWNLVMEKGEGFTKEVQLVIPVSFSAVFIKRQIVNEQYGNAWRVWKQMGRPRFPSRQAVETLRQVAQPHVMTEQRRATDGVIHLSIVLSKNEVTLIEIEQVRDETSTYVGLDDGEMTSYSS
notes: full-length ORF of 1509 bp (about 502 residues); N-His SUMO fusion expressed in E. coli, tag cleaved with SUMO protease; 58 kDa, apparent tetramer of 230 kDa
What is called Km is the substrate concentration at which the rate is half of its maximum. Take B1: the Km in data set [3] stood at 2380 µM.

For the origin of these results see PMC4300165, “Highly thermostable GH39 β-xylosidase from a Geobacillus sp. strain WSUCF1” (BMC Biotechnology, 2014).
